B1: OR4K15 (parent)
chain: GUUAACGGUCAUAGGCCAUGGAAACUAGGAGCACCAUUUCGCUGCCAGUGAAGAAAUGAACAAAGAAAAUCUGGGCCAGGCAGGCAUCAAAAGAAAUAGUCUUGCGCUCAACCAGAAAGUCUGUAAUCAUUUUAAGGGUA

Variants of: B1
Assay: self-cleavage, relative activity (ratio to wild type); higher = more cleavage; in vitro, sequencing; the parent is a self-cleaving ribozyme

Going from G20U to A66G A92G, the self-cleavage falls from 1.53 to 0.74.

First: U49C U124C
Second: U39G A47U
The self-cleavage of the first is lower: 0.71 for the first, 0.98 for the second.

First: A68G G99A
Second: A18C
The self-cleavage of the first is lower: 0.57 for the first, 0.89 for the second.

First: A4G A64G
Second: G58U U124C
The self-cleavage of the first is higher: 1.21 for the first, 0.25 for the second.

First: U26C U100C
Second: A67G C107U
The self-cleavage of the first is higher: 1.45 for the first, 0.01 for the second.

Compared with U9A C42A, U87C G123C is higher in self-cleavage: 0.53 for the first, 1.6 for the second.

First: C77U A117G
Second: A30G C40A
The self-cleavage of the first is higher: 2.83 for the first, 1.42 for the second.

Compared with A18G A62U, A24G U122G is higher in self-cleavage: 2.16 for the first, 2.31 for the second.

First: A11G A92C
Second: C6U U102A
The self-cleavage of the first is lower: 0.7 for the first, 1.22 for the second.

Compared with A67G U127C, G44A U102C is higher in self-cleavage: 1.16 for the first, 2.14 for the second.

First: U37C U133A
Second: G79C A91G
The self-cleavage of the first is higher: 1.34 for the first, 0.09 for the second.

Going from U131C G137A to U100C G136A, the self-cleavage rises from 0.07 to 2.45.

Going from G74A A95G to U2C A126G, the self-cleavage rises from 0.35 to 1.22.

Going from A52G A117C to C109U A117G, the self-cleavage falls from 0.47 to 0.44.

First: U26C A68G
Second: A62C A118G
The self-cleavage of the first is lower: 1.26 for the first, 1.46 for the second.

Compared with A36U U43A, A22G G53C is lower in self-cleavage: 1.85 for the first, 1.81 for the second.

Going from A18G A116U to G106A U122A, the self-cleavage falls from 0.75 to 0.01.

Compared with U49C G137A, U72A U87C is lower in self-cleavage: 1.95 for the first, 0.19 for the second.

Going from U19A A116U to U37C A125G, the self-cleavage rises from 0.43 to 0.68.

First: A90G U100A
Second: U38C C61A
The self-cleavage of the first is lower: 0.31 for the first, 0.99 for the second.

First: U43C U122C
Second: A82C A90G
The self-cleavage of the first is higher: 0.81 for the first, 0.15 for the second.

First: G7A A18C
Second: A96G U103A
The self-cleavage of the first is higher: 1.98 for the first, 1.08 for the second.

Going from A63U A90G to G65A A126G, the self-cleavage falls from 1.76 to 1.12.

Compared with A47C G74U, A118U U127C is lower in self-cleavage: 0.15 for the first, 0.02 for the second.

Going from A96C to A98G A125U, the self-cleavage rises from 0.82 to 0.84.

Going from G50A to U72A U102C, the self-cleavage falls from 1.68 to 0.58.

Going from U97A A116G to A59U A96G, the self-cleavage rises from 1.19 to 1.87.

First: A11U A63G
Second: U19C G31U
The self-cleavage of the first is lower: 0.86 for the first, 1.29 for the second.

First: G79A A140G
Second: A89G G99A
The self-cleavage of the first is lower: 0.13 for the first, 1.15 for the second.

Going from A62G A114U to A4G U87C, the self-cleavage rises from 0.02 to 1.14.

Compared with A30U U37C, A63G U120C is higher in self-cleavage: 0.84 for the first, 1.27 for the second.

Going from A24U A110G to A18C U131C, the self-cleavage rises from 0.13 to 0.73.

Going from A5U A33C to A69U A94G, the self-cleavage rises from 1.62 to 2.42.

First: G106A A135G
Second: A63G A118U
The self-cleavage of the first is lower: 0.02 for the first, 0.84 for the second.

First: A5G U120G
Second: A82U A86U
The self-cleavage of the first is higher: 0.39 for the first, 0.32 for the second.

Going from A24G U133C to A27G A69G, the self-cleavage falls from 1.14 to 0.62.

Compared with A4G A95G, U9C A11U is higher in self-cleavage: 1.4 for the first, 1.67 for the second.

Going from A56G U132A to A64G U102A, the self-cleavage falls from 2.05 to 0.68.

Compared with G73U A86G, U3C A59G is higher in self-cleavage: 0.17 for the first, 1.17 for the second.

Going from A36G A111C to A54G U130A, the self-cleavage rises from 0 to 1.11.

First: U12C U132A
Second: G58U U102C
The self-cleavage of the first is lower: 0.67 for the first, 1.68 for the second.

First: U9C U100C
Second: A54G A94G
The self-cleavage of the first is higher: 2.18 for the first, 1.2 for the second.

Source: the RNAGym collection of RNA variant scans (doi:10.7554/elife.90254)
